Tests used:
[1] = molecular target: CumDO-O β1R65A (Pseudomonas fluorescens IP01) (UniProt Q51743)
[2] = molecular target: CumDO-O α1K117A (Pseudomonas fluorescens IP01) (UniProt Q51743)
[3] = molecular target: CumDO-O α1K141A β2W100A (Pseudomonas fluorescens IP01) (UniProt Q51743)
[4] = molecular target: CumDO-O β1R65A β2W100A (Pseudomonas fluorescens IP01) (UniProt Q51743)
[5] = molecular target: CumDO-O α1K117A α1K141A (Pseudomonas fluorescens IP01) (UniProt Q51743)
[6] = molecular target: CumDO-O α1K117A β1R65A (Pseudomonas fluorescens IP01) (UniProt Q51743)
[7] = molecular target: CumDO-O α1K141A β1R65A (Pseudomonas fluorescens IP01) (UniProt Q51743)
[8] = molecular target: CumDO-O α1K117A β2W100A (Pseudomonas fluorescens IP01) (UniProt Q51743)
[9] = molecular target: α3β3-type oxygenase component of cumene dioxygenase (CumDO-O), wild type (Pseudomonas fluorescens IP01) (UniProt Q51743)

Chain of Rieske-type ferredoxin of cumene dioxygenase (CumDO-F) (Q51746 entry or part of it): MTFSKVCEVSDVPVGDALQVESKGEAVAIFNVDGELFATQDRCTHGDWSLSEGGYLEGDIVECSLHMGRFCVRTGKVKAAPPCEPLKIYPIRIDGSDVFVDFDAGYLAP

Rieske-type ferredoxin of cumene dioxygenase (CumDO-F) (from UniProt Q51746 1-109) (natural protein)
reduction efficiency by CumDO-F relative to WT CumDO-O (A457) [1]: 46% | reduction efficiency by CumDO-F relative to WT CumDO-O (A457) [2]: 21% | reduction efficiency by CumDO-F relative to WT CumDO-O (A457) [3]: 69% | reduction efficiency by CumDO-F relative to WT CumDO-O (A457) [4]: < 20% | reduction efficiency by CumDO-F relative to WT CumDO-O (A457) [5]: < 20% | reduction efficiency by CumDO-F relative to WT CumDO-O (A457) [6]: < 20% | reduction efficiency by CumDO-F relative to WT CumDO-O (A457) [7]: < 20% | reduction efficiency by CumDO-F relative to WT CumDO-O (A457) [8]: < 20% | reduction efficiency of the Rieske cluster of CumDO-O by CumDO-F (initial rate of decrease of A457; purified CumDO-R, CumDO-F, CumDO-O and NADH) [9]: 100%

— PMC9361823
